These results are taken from US20160208233A1 (Harvard, published 2016).

The target in series [1] is T1, Abz-LPETGK(Dnp)-CONH2.
T1 chain: LPETGK

Series [2] has as its target T2, Abz-LAETGK(Dnp)-CONH2.
T2 chain: LAETGK

The target of series [3] is T3, Abz-LPESGK(Dnp)-CONH2.
T3 chain: LPESGK

In series [4] the target is T4, Gly-Gly-Gly-COOH.
T4 chain: GGG

Changes are numbered by the printed parent chain. In names and notes the source's numbering stands.

B1: eSrtA(2A-9) H104A (protein)
chain: QAKPQIPKDKSKVAGYIEIPDADIKEPVYPGPATREQLNRGVCFADENESLDDQNISIAGHTFIDRPNYQFTNLKAAKPGSMVYFKVGNETRIYKMTSIRKVHPNAVEVLDEQEGKDKQLTLVTCDDYNEETGVWESRKIFVATEVK
Take B1: the “preference for LPETG over LAETG (kcat/Km)” value in series [1] is given as “resulting in a 60-fold preference for LPETG (SEQ ID NO: 4) over LAETG (SEQ ID NO: 5)”.

B2: eSrtA(2A-9) V182I (protein)
chain: B1 chain with A45H, V123I
Turning to B2, the “preference for LAETG over LPETG (kcat/Km)” value in series [2] is recorded as “lowers the activity level for LAETG (SEQ ID NO: 5), but maintains an 85-fold preference for LAETG (SEQ ID NO: 5) over LPETG (SEQ ID NO: 4)”.

B3: eSrtA(2A-3) (protein)
chain: QAKPQIPKDKSKVAGYIEIPDADIREPVYPGPATREQLNRGVSFAEENESLDDQNISIAGHTSIGRPNYQFTNLRAAKKGSMVYFEVGNETRKYKMTSIRNVRPTAVEILDEQKGKDRQLTLFTCDDYNEETGVWETRKIFVATEVK
For the protein B3, in series [2], the Avg KM amounted to 1620 µM and the Avg kcat/KM worked out at 881. Moreover, in series [1], the Avg KM was found to be 2100 µM; the Avg kcat/KM came out at 1270; the Specificity (relative catalytic efficiency, fold), LPETG over LAETG was 1.44 fold.

B4: eSrtA(4S-3) (protein)
chain: B3 chain with R25K, N39S, A45T, A59T, E86K, R103K, I109V, K114E, R118E, F123V
In series [3], B4 gave an Avg KM of 3330 µM; an Avg kcat/KM of 763; a Specificity, LPESG over LPETG of 245 fold. In series [1], this protein had an Avg KM of 3390 µM and an Avg kcat/KM of 3.12.

B5: wild-type S. aureus sortase A (protein)
chain: QAKPQIPKDKSKVAGYIEIPDADIKEPVYPGPATPEQLNRGVSFAEENESLDDQNISIAGHTFIDRPNYQFTNLKAAKKGSMVYFKVGNETRKYKMTSIRDVKPTDVEVLDEQKGKDKQLTLITCDDYNEKTGVWEKRKIFVATEVK
The Km is the concentration of substrate that gives half-maximal velocity. What is called kcat/Km is the turnover number divided by the Michaelis constant. As for B5, in series [4], the Km, GGG (uM); with LPETG peptide was 291 µM and the Km,GGG (µM); listed substrate LPETG stood at 211 µM. In series [1], the Km stood at 7.6 mM; the Km, LxExG turned out to be 5180 µM; the kcat/Km came to 200 M⁻¹ s⁻¹; the kcat/Km (Hz/M) came out at 236 Hz/M.

B6: eSrtA(2A-5) (protein)
chain: B5 chain with P35R, R40H, A45H, K79I, D101N, K103R, D106A, I123V, K131E, K137T
Turning to B6, the Km, GGG (uM); with LAETG peptide in series [4] is 2810 µM. In addition, in series [2], the Km, LxExG was found to be 433 µM; the “increase in kcat/Km, LAETG substrate against LPETG substrate” value is given as “from ˜40-fold (2Ar4) to ˜125-fold (2Ar5) increase in kcat/Km”; the “increased affinity for the LAETG substrate as compared to the LPETG substrate” value is given as “from ˜61 (2A.6c) to ˜116fold (2Ar5)”; the kcat/Km (Hz/M) is 3260 Hz/M. The specificity (relative cat. Efficiency, fold), LAETG over LPETG in series [2] amounted to 116 fold. In series [1], the Km, LxExG was 4900 µM and the kcat/Km (Hz/M) is 28.1 Hz/M.

B7: eSrtA(4S-4) (protein)
chain: B5 chain with P35R, A45V, A59T, F63S, D101N, D106A, I123V, K131E, K137T
On to B7, for which, in series [3], the Avg KM stood at 1560 µM; the Avg kcat/KM worked out at 487; the Km, LxExG was found to be 1410 µM; the Specificity, LPESG over LPETG was 2.22 fold. Moreover, in series [3], the kcat/Km (Hz/M) is 517 Hz/M and the specificity (relative cat. Efficiency, fold), LPESG over LPETG turned out to be 1.82 fold. For the same protein, in series [1], the Avg KM worked out at 491 µM; the Avg kcat/KM was determined as 219; the Km, LxExG turned out to be 339 µM; the kcat/Km (Hz/M) was 283 Hz/M.

B8: eSrtA(2A-4) (protein)
chain: B3 chain with R25K, A45H, S63F, G65D, R75K, E86K, R118K, F123V
Consider B8, for which, in series [2], the Avg KM amounted to 3720 µM; the Avg kcat/KM turned out to be 534; the Km, LxExG is 3250 µM; the Specificity (relative catalytic efficiency, fold), LAETG over LPETG stood at 55.1 fold. In series [2], the “increase in kcat/Km, LAETG substrate against LPETG substrate” value was “from ˜40-fold (2Ar4) to ˜125-fold (2Ar5) increase in kcat/Km”; the kcat/Km (Hz/M) was 585 Hz/M; the specificity (relative cat. Efficiency, fold), LAETG over LPETG came to 73 fold. Also, in series [1], the Avg KM was 5180 µM; the Avg kcat/KM turned out to be 9.69; the Km, LxExG was determined as 11700 µM; the kcat/Km (Hz/M) came to 8.01 Hz/M.

B9: eSrtA(4S-3.5) (protein)
chain: B5 chain with P35R, A45T, A59T, D101N, D106A, I123V, K131E, K137T
With B9, in series [3], the Avg KM came out at 38800 µM; the Avg kcat/KM worked out at 193; the Km, LxExG was 7310 µM; the Specificity, LPESG over LPETG stood at 1.45 fold. For the same protein, the kcat/Km (Hz/M) in series [3] was 154 Hz/M. In series [1], the Avg KM stood at 39300 µM and the Avg kcat/KM was 133.

B10: 2A.6B (protein)
chain: B5 chain with P35R, R40K, A45H, K79V, D101K, K103R, D106A, I123V, K131E, K137T
Take B10: the Km, GGG (uM); with LAETG peptide in series [4] turned out to be 642 µM. Moreover, in series [2], the Km, LxExG was found to be 310 µM and the kcat/Km (Hz/M) stood at 2270 Hz/M.

B11: eSrtA(2A-6) (protein)
chain: B5 chain with P35R, A45H, K79V, D101N, K103R, D106A, I123V, K131E, K137T
Take B11: in series [4], the Avg KM (uM) for GGG; with LAETG (2A) peptide came to 1110 µM; the Avg kcat/KM for GGG; with LAETG (2A) peptide stood at 1610; the Km, GGG (uM); with LAETG peptide is 1040 µM. In series [2], the Avg KM came out at 665 µM; the Avg kcat/KM turned out to be 3930; the Km, LxExG turned out to be 608 µM; the Specificity (relative catalytic efficiency, fold), LAETG over LPETG is 82.4 fold. Moreover, in series [2], the kcat/Km (Hz/M) turned out to be 4130 Hz/M and the specificity (relative cat. Efficiency, fold), LAETG over LPETG came to 86.4 fold. In series [1], the Avg KM came out at 3400 µM; the Avg kcat/KM is 47.7; the Km, LxExG stood at 3290 µM; the kcat/Km (Hz/M) is 47.8 Hz/M.

B12: 2A.6C (protein)
chain: B1 chain with C43S, A45H, D46E, H103R, N105T, E114K, S137T
For the protein B12, the Km, GGG (uM); with LAETG peptide in series [4] was determined as 642 µM. In addition, in series [2], the Km, LxExG stood at 343 µM; the “increased affinity for the LAETG substrate as compared to the LPETG substrate” value is given as “from ˜61 (2A.6c) to ˜116fold (2Ar5)”; the kcat/Km (Hz/M) amounted to 2380 Hz/M; the specificity (relative cat. Efficiency, fold), LAETG over LPETG worked out at 61.6 fold. In series [1], the Km, LxExG is 1980 µM and the kcat/Km (Hz/M) amounted to 38.7 Hz/M.

B13: eSrtA(4S-5) (protein)
chain: QAKPQIPKDKSKVAGYIEIPDADIKEPVYPGPATREQLDRGVSFVEENESLDDQNISITGHTAIDRPNYQFTNLRAAKKGSMVYFKVGNETRKYKMTSIRNVKPTAVEVLDEQKGKDKQLTLVTCDDYNEETGVWETRKIFVATEVK
Consider B13, for which the Km,GGG (uM); with LPESG peptide in series [4] stood at 26700 µM. Also, in series [3], the Avg KM amounted to 76 µM; the Avg kcat/KM is 5130; the Km, LxExG was 76 µM; the Specificity, LPESG over LPETG was 9.67 fold. In series [3], the “increase in kcat/Km, LPESG substrate against LPETG substrate” value was “from ˜2-fold (4Sr5) to ˜5-fold (4Sr6a) increase in kcat/Km”; the “increased affinity for the LPESG substrate as compared to the LPETG substrate” value is on record as “from ˜2-fold (4Sr6b) to ˜8-fold (4Sr5)”; the kcat/Km (Hz/M) is 5130 Hz/M; the specificity (relative cat. Efficiency, fold), LPESG over LPETG was 10 fold. In addition, in series [1], the Avg KM came to 11.7 µM; the Avg kcat/KM stood at 530; the Km, LxExG turned out to be 12.2 µM; the kcat/Km (Hz/M) was 513 Hz/M.

B14: eSrtA(4S-9) V104A (protein)
chain: B13 chain with S43C, V45A, F85L, E130F
On to B14, for which the “lowering of specificity for LPESG over LPETG against eSrtA(4S-9)” value in series [3] is “lowering specificity for LPESG (SEQ ID NO: 3) over LPETG (SEQ ID NO: 4) by 14-fold for the V104A mutant”.

B15: eSrtA(4S-9) T118A (protein)
chain: B13 chain with S43C, T59A, F85L, E130F
On to B15, for which, in series [3], the “lowering of specificity for LPESG over LPETG against eSrtA(4S-9)” value is “by 75-fold for the T118A mutant”.

B16: eSrtA(4S-9) V182I (protein)
chain: B13 chain with S43C, F85L, V123I, E130F
On to B16, for which, in series [3], the “activity and selectivity on LPESG and LPETG (kcat/Km)” value was “Reversion of V182 in eSrtA(4S-9) preserved selectivity but decreased overall activity”.

B17: 4S.6B (protein)
chain: B13 chain with T59S, R75P, E130P
Turning to B17, the Km,GGG (uM); with LPESG peptide in series [4] was determined as 15700 µM. Also, in series [3], the Km, LxExG turned out to be 312 µM; the “increased affinity for the LPESG substrate as compared to the LPETG substrate” value is “from ˜2-fold (4Sr6b) to ˜8-fold (4Sr5)”; the kcat/Km (Hz/M) was found to be 4140 Hz/M; the specificity (relative cat. Efficiency, fold), LPESG over LPETG turned out to be 0.91 fold. Moreover, in series [1], the Km, LxExG came to 238 µM and the kcat/Km (Hz/M) amounted to 4550 Hz/M.

B18: 4S.6C (protein)
chain: B13 chain with E130F
As for B18, in series [4], the Km,GGG (uM); with LPESG peptide was 36000 µM. For the same protein, in series [3], the Km, LxExG is 156 µM; the kcat/Km (Hz/M) turned out to be 4350 Hz/M; the specificity (relative cat. Efficiency, fold), LPESG over LPETG was found to be 18.5 fold. In addition, in series [1], the Km, LxExG stood at 16.1 µM and the kcat/Km (Hz/M) came out at 235 Hz/M.

B19: eSrtA(4S-6) (protein)
chain: B13 chain with T59S, R75G, E130V
As for B19, in series [4], the Avg KM (uM) for GGG; with LPESG (4S) peptide came to 13100 µM, the Avg kcat/KM for GGG; with LPESG (4S) peptide came out at 153 and the Km,GGG (uM); with LPESG peptide was 4950 µM. Moreover, in series [3], the Avg KM was determined as 125 µM; the Avg kcat/KM came out at 7530; the Km, LxExG turned out to be 102 µM; the Specificity, LPESG over LPETG was 8.09 fold. In series [3], the “increase in kcat/Km, LPESG substrate against LPETG substrate” value is listed as “from ˜2-fold (4Sr5) to ˜5-fold (4Sr6a) increase in kcat/Km”; the kcat/Km (Hz/M) came out at 9390 Hz/M; the specificity (relative cat. Efficiency, fold), LPESG over LPETG was 11 fold. In series [1], the Avg KM stood at 1040 µM; the Avg kcat/KM stood at 930; the Km, LxExG amounted to 1290 µM; the kcat/Km (Hz/M) came to 854 Hz/M.
